# Laboratory results reported in patent US11485769B2, “Peptides and combination of peptides for use in immunotherapy and methods for generating scaffolds for the use against pancreatic cancer and other cancers” (Immatics Biotechnologies GmbH, priority 2015, dated 2022).
# Target: HLA-A*02:01 (Homo sapiens, UniProt P04439, D140Y/D185E/D98H/E176V/E277Q/G131W/G231S/I119V/I121R/I166T/I218V/L300P/L318F/N151K/N90K/P208A/P217A/Q86G/Q94H/R138H/R169H/T345S)
# Assay: MHC binding assay (UV-ligand exchange, beta2m ELISA, peptide exchange yield)
# Settings: binding to HLA-A*02:01 ranged by peptide exchange yield, β2m ELISA
# From the text: Candidate peptides for T cell based therapies according to the present invention were further tested for their MHC binding capacity (affinity). The individual peptide-MHC complexes were produced by UV-ligand exchange, where a UV-sensitive peptide is cleaved upon UV-irradiation, and exchanged with the peptide of interest as analyzed. Only peptide candidates that can effectively bind and stabilize the peptide-receptive MHC molecules prevent dissociation of the MHC complexes. To determine the yield of the exchange reaction, an ELISA was performed based on the detection of the light chain (β2m) of stabilized MHC complexes. The assay was performed as generally described in Rodenko et al. (Rodenko et al., 2006).
# 96 well MAXISorp plates (NUNC) were coated over night with 2 ug/ml streptavidin in PBS at room temperature, washed 4× and blocked for 1 h at 37° C. in 2% BSA containing blocking buffer. Refolded HLA-A*02:01/MLA-001 monomers served as standards, covering the range of 15-500 ng/ml. Peptide-MHC monomers of the UV-exchange reaction were diluted 100 fold in blocking buffer. Samples were incubated for 1 h at 37° C., washed four times, incubated with 2 ug/ml HRP conjugated anti-μ2m for 1h at 37° C., washed again and detected with TMB solution that is stopped with […]. Absorption was measured at 450 nm. Candidate peptides that show a high exchange yield (preferably higher than 50%, most preferred higher than 75%) are generally preferred for a generation and production of antibodies or fragments thereof, and/or T cell receptors or fragments thereof, as they show sufficient avidity to the MHC molecules and prevent dissociation of the MHC complexes.
# MHC class I binding scores. Binding of HLA-class I restricted peptides to HLA-A*02:01 was ranged by peptide exchange yield: ≥10%=+; ≥20%=++; ≥50=+++; >75%=++++
row,Substance,Peptide exchange (MHC class I binding score)
1,127 (ALSDLALHFL; listed as Homo sapiens) [compound 127],“++++” (>75%=++++)
2,128 (ALYDVRTILL; listed as Homo sapiens) [compound 128],“+++” (≥50=+++)
3,129 (ALYEKDNTYL; listed as Homo sapiens) [compound 129],“+++” (≥50=+++)
4,130 (FLFGEEPSKL; listed as Homo sapiens) [compound 130],“+++” (≥50=+++)
5,131 (FLIEEQKIVV; listed as Homo sapiens) [compound 131],“+++” (≥50=+++)
6,132 (FLWAGGRASYGV; listed as Homo sapiens) [compound 132],“+++” (≥50=+++)
7,133 (ILDDVSLTHL; listed as Homo sapiens) [compound 133],“++” (≥20%=++)
8,134 (ILLAEGRLVNL; listed as Homo sapiens) [compound 134],“+++” (≥50=+++)
9,135 (KLDDTYIKA; listed as Homo sapiens) [compound 135],“+++” (≥50=+++)
10,136 (KLFPGFEIETV; listed as Homo sapiens) [compound 136],“++++” (>75%=++++)
11,137 (KLGPEGELL; listed as Homo sapiens) [compound 137],“+++” (≥50=+++)
12,138 (NIFPNPEATFV; listed as Homo sapiens) [compound 138],“+++” (≥50=+++)
13,139 (SIDRNPPQL; listed as Homo sapiens) [compound 139],“+++” (≥50=+++)
14,140 (SLLNPPETLNL; listed as Homo sapiens) [compound 140],“+++” (≥50=+++)
15,141 (SLTEQVHSL; listed as Homo sapiens) [compound 141],“+++” (≥50=+++)
16,142 (SLYGYLRGA; listed as Homo sapiens) [compound 142],“+++” (≥50=+++)
17,144 (TAVALLRLL; listed as Homo sapiens) [compound 144],“++” (≥20%=++)

row,Substance,Peptide exchange (MHC class I binding score)
1,145 (TTFPRPVTV; listed as Homo sapiens) [compound 145],“+++” (≥50=+++)
2,146 (VLISGVVHEI; listed as Homo sapiens) [compound 146],“+++” (≥50=+++)
3,147 (YAFPKAVSV; listed as Homo sapiens) [compound 147],“++” (≥20%=++)
4,148 (YLHNQGIGV; listed as Homo sapiens) [compound 148],“++” (≥20%=++)
5,149 (ILGTEDLIVEV; listed as Homo sapiens) [compound 149],“+++” (≥50=+++)
6,150 (ALFQPHLINV; listed as Homo sapiens) [compound 150],“++++” (>75%=++++)
7,151 (ALLDIIRSL; listed as Homo sapiens) [compound 151],“++++” (>75%=++++)
8,152 (ALLEPEFILKA; listed as Homo sapiens) [compound 152],“++++” (>75%=++++)
9,153 (ALPKEDPTAV; listed as Homo sapiens) [compound 153],“+++” (≥50=+++)
10,154 (KVADLVLML; listed as Homo sapiens) [compound 154],“+++” (≥50=+++)
11,155 (LLLDPDTAVLKL; listed as Homo sapiens) [compound 155],“+++” (≥50=+++)
12,156 (LLLPPPPCPA; listed as Homo sapiens) [compound 156],“+++” (≥50=+++)
13,157 (MLLEIPYMAA; listed as Homo sapiens) [compound 157],“+++” (≥50=+++)
14,158 (SLIEKYFSV; listed as Homo sapiens) [compound 158],“++++” (>75%=++++)
15,159 (SLLDLHTKV; listed as Homo sapiens) [compound 159],“+++” (≥50=+++)
16,160 (VLLPDERTISL; listed as Homo sapiens) [compound 160],“++++” (>75%=++++)
17,161 (YLPDIIKDQKA; listed as Homo sapiens) [compound 161],“+++” (≥50=+++)
